Results on one molecule are retold here after patent US20260209761, “RNA-GUIDED ENDONUCLEASE SYSTEM AND USE THEREOF IN GENE EDITING” (HARBIN INSTITUTE OF TECHNOLOGY, published 2026).

The target of the data set is T1, FbRAD1/ISFba1 (RHS75625.1) (Firmicutes bacterium AM43-11BH).
T1 chain: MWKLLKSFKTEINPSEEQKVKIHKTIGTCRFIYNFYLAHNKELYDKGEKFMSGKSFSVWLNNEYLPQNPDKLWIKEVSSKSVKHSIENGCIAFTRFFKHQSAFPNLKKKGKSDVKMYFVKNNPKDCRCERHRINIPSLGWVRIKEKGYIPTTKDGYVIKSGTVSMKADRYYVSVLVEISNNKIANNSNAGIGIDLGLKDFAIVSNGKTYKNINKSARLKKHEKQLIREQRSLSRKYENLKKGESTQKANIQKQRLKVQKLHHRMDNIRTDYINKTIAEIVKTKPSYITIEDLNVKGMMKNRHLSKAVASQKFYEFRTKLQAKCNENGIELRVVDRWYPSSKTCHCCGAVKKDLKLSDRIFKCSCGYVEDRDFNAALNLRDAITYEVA
The data set can be described thus: co-purified RNA, degraded by RNase not DNase; about 180 nt; RNA-seq. The note with it: tags: GST (cleaved by PreScission), C-terminal 6His per expression cassette; stem loop, long hairpin with inner loop and pseudoknot (predicted).

B1: FbRAD1 RAGATH-18-associated RNA (ssRNA)
RNA: CUAAAACGCAAACGUAAGUAUGUACCGAAGGCUAUUUUCGGGAAUUUACGACUAUGGAGUGUACAAGAACUUGUGAGUAGAUAUGAUUUCGGUCAAUCCAAAGCAUACACGAUGAAAUAGUAAGUAAUGUUCGUGAGAACUUACAUUAUCUCGAUGUGAGCAUAUUUAAUCACAUUUUGAGUGGCAG
On to B1, for which the binding result is on record as “binds”.
